According to PMC2938955 (Biochemistry, 2010):

What was measured:
[1] = molecular target: p150^Glued CAP-gly domain (residues 19-107) G59A (UniProt Q14203-1 19-107, G59A); assay: SEC
[2] = molecular target: p150^Glued CAP-gly domain, wildtype (residues 19-107) (UniProt Q14203-1 19-107); assay: SEC
Sequence of p150^Glued CAP-gly domain, wildtype (residues 19-107) (Q14203 19-107): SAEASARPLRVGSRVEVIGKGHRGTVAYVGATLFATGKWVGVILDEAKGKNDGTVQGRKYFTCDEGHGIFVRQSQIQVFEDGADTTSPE

Sequence of p150^Glued CAP-gly domain (residues 19-107) G59A (Q14203 19-107 G59A): as the sequence (Q14203 19-107) above, with G41A counted along it

binding result [1]: binds | binding result [2]: binds
B1: EB1 fragment (residues 194 to 268) (domain or fragment, UniProt Q15691 194-268, looked up)
chain: AELMQQVNVLKLTVEDLEKERDFYFGKLRNIELICQENEGENDPVLQRIVDILYATDEGFVIPDEGGPQEEQEEY
